Columns and labels:
[1] = biological target: monomeric cyno Tim3-ECD (cynomolgus); assay: ELISA on cynomolgus Tim3
[2] = biological target: Tim3-ECD-His-Biotin (human) (UniProt Q8TDQ0); assay: ELISA on human Tim3 (values in relation to the samples max value)
[3] = biological target: Tim3-ECD-His-Biotin (human) (UniProt Q8TDQ0); assay: ELISA on human Tim3
[4] = biological target: huFc fused dimeric human Tim3-ECD (human) (UniProt Q8TDQ0); assay: SPR BIAcore B4000, Ab captured on anti-mouse IgG, 25 C, dimeric antigen (avidity)
[5] = biological target: full-length human Tim3 on cells (CHO-K1 stably transfected with plasmid 15312_hTIM3-fl_pUC_Neo) (human) (UniProt Q8TDQ0); assay: cellular ELISA on CHO-TIM3 (values in relation to the samples max value)
[6] = biological target: monomeric cyno Tim3-ECD (cynomolgus); assay: ELISA on cynomolgus Tim3 (values in relation to the samples max value)
[7] = biological target: monomeric human Tim3-ECD (human) (UniProt Q8TDQ0); assay: SPR BIAcore B4000, Ab captured on anti-mouse IgG, 25 C
[8] = biological target: monomeric cyno Tim3-ECD (cynomolgus); assay: as above
[9] = biological target: full-length human Tim3 on cells (CHO-K1 stably transfected with plasmid 15312_hTIM3-fl_pUC_Neo) (human) (UniProt Q8TDQ0); assay: cell-based or functional assay
[10] = biological target: full-length human Tim3 on cells (CHO-K1 stably transfected with plasmid 15312_hTIM3-fl_pUC_Neo) (human) (UniProt Q8TDQ0); assay: cellular ELISA on CHO-TIM3

Inflexion point [1]: 210000 ng/mL
EC50 [2]: 0.0732 µg/mL
Inflexion point [3]: 88.3 ng/mL
Kd [4]: 7.5 nM
EC50 [5]: 0.15 µg/mL
EC50 [6]: 0.423 µg/mL
Kd [7]: 13.6 nM
Kd [8]: 168 nM
IFN-gamma release in MLR at 1 µg/ml antibody, % of rec hu IL-2 (20 EU/ml) = 100% [9]: 7%
IFN-gamma release in MLR at 10 µg/ml antibody, % of rec hu IL-2 (20 EU/ml) = 100% [9]: 26%
IFN-gamma release in MLR at 40 µg/ml antibody, % of rec hu IL-2 (20 EU/ml) = 100% [9]: 36%
Inflexion point [10]: 224 ng/mL
Substance: Reference antibody Biolegend F38-2E2
